Literature values in publication PMC6085760.

Target: Amyloid-β (Homo sapiens) (UniProt P05067)
Sequence (P05067 672-711): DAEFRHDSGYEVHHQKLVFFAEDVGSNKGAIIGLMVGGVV

Which Kd does the source give for LPFFD peptide here?
Its Kd is 156 µM.
